Measured values taken from patent US20110124556 (published 2011).
Like-named read-outs stand apart in the source and are kept apart here.

Key:
[1] = molecular target: T1, human insulin receptor (HIR) (human, UniProt P06213); assay: competition
[2] = molecular target: T1, human insulin receptor (HIR); assay: competition; remark: listed apart in the source
[3] = molecular target: T1, human insulin receptor (HIR); assay: competition; remark: listed apart in the source
[4] = molecular target: T1, human insulin receptor (HIR); assay: competition; remark: listed apart in the source
sIR = sIR (human, UniProt P06213); assay: FP
sIR-Fc = sIR-Fc (human, UniProt P06213); assay: competition, TR-FRET vs b-RP9

B1: S374 (peptide)
chain 1: XGSLDESFYDWFERQLGKK
chain 2: XGSLDESFYDWFERQLGKK
modifications: not fully specified; listing feature
[1]
  Kd: 180 nM

B2: S415 (peptide)
chain 1: ESFYDWFERQLGKX
chain 2: ESFYDWFERQLGKX
modifications: listing feature
[2]
  Kd: 100 nM

B3: 539 (D8-6aa-RP9) (protein)
chain: MADYKDDDDKWLDQEWAWVQCEVYGRGCPSGGSGGSGSLDESFYDWFERQLGKKAAAGAPVPYPDPLEPRPG
[3]
  Kd: 0.7 nM

B4: H2C (D117) (peptide)
chain: FHENFYDWFVQRVSKK
[4]
  IC50: 700 nM

B5: S371 (RP9) (peptide)
chain: GSLDESFYDWFERQLGKK
[1]
  Kd: 830 nM

B6: S414 (peptide)
chain 1: ESFYDWFERQLGKX
chain 2: ESFYDWFERQLGKX
modifications: not fully specified; listing feature
sIR
  IC50: 0.2 nM
sIR-Fc
  IC50: 184 nM
